Experimental findings from patent US20030145347 are described below.

Series [1] concerns the target soybean thioredoxin with S-tag (recombinant, expressed in E. coli from pNOV4112).
Series [2] deals with rice thioredoxin with S-tag (recombinant, expressed in E. coli from pNOV4113).
Series [3] deals with soybean thioredoxin prep without S-tag (recombinant, expressed in E. coli from pNOV4112, S-Tag removed by thrombin cleavage).
Series [4] concerns the target wheat thioredoxin with S-tag (recombinant, expressed in E. coli from pNOV4114).

B1: E. coli thioredoxin reductase (T-7915, Sigma, St. Louis, Mo.) (protein)
chain: GTTKHSKLLILGSGPAGYTAAVYAARANLQPVLITGMEKGGQLTTTTEVENWPGDPNDLTGPLLMERMHEHATKFETEIIFDHINKVDLQNRPFRLNGDNGEYTCDALIIATGASARYLGLPSEEAFKGRGVSACATCDGFFYRNQKVAVIGGGNTAVEEALYLSNIASEVHLIHRRDGFRAEKILIKRLMDKVENGNIILHTNRTLEEVTGDQMGVTGVRLRDTQNSDNIESLDVAGLFVAIGHSPNTAIFEGQLELENGYIKVQSGIHGNATQTSIPGVFAAGDVMDHIYRQAITSAGTGCMAALDAERYLDGLADAK
For B1, the “reduction of thioredoxin, DTNB assay” value in series [1] was “can reduce soybean thioredoxin with and without the S-tag”; in series [2], “can also reduce rice thioredoxin”; in series [3], “can reduce soybean thioredoxin with and without the S-tag”; in series [4] it was “Wheat thioredoxin can be reduced by E. coli thioredoxin reductase”.
